Data from patent publication US10654927B2, “Signalling system” (UCL BUSINESS PLC, priority 2014, dated 2020).

Experiments:
[1] = target: streptavidin (Streptomyces avidinii, UniProt P22629); settings: biotin mimicking peptide binding streptavidin; read-out: affinity; cited from earlier work
[2] = tested on: SupT1 cells engineered to express CD33; experiment: Activation of BW5 T-cells expressing TetCAR challenged with SupT1 cells engineered to express CD33; assay type: cell-based; settings: increasing concentrations of tetracycline
Excerpt: FIG. 7—Function of the initial TetR construct in comparison with control. (a) TetCAR was expressed in BW5 T-cells. These T-cells were challenged with wild-type SupT1 cells or SupT1 cells engineered to express CD33 in the absence of tetracycline or in the presence of increasing concentrations of tetracycline. […] (b) Control TetCAR which lacks the TiP domain was transduced into BW5. Once again, these T-cells were challenged with wild-type SupT1 cells or SupT1 cells engineered to express CD33 in the absence or in the presence of increasing concentration of Tetracycline.
Signalling through the signalling component may be determined by a variety of methods known in the art. […] Functional readouts, such as clonal expansion of T cells, upregulation of activation markers on the cell surface, differentiation into effector cells and induction of cytotoxicity or cytokine secretion may also be utilised. As an illustration, in the present examples the inventors determined levels of interleukin-2 (IL-2) produced by T-cells expressing a receptor component and signalling component of the CAR system according to the present invention upon binding of antigen to the receptor component in the presence of varying concentrations of an agent. […]

streptavidin, sequence (P22629 37-163): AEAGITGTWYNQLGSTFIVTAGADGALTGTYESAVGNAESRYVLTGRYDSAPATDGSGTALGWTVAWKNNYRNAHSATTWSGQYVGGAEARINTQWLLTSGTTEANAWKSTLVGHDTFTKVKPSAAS

Compound | Kd [1] | concentration of tetracycline at which activation is fully inhibited [2]
Biotin mimicking peptide DVEAWLGAR (SEQ ID NO: 5) (Biotin mimicking peptide, short nanotag) | 17 nM | –
Biotin mimicking peptide DVEAWLDERVPLVET (SEQ ID NO: 4) (Biotin mimicking peptide, long nanotag) | 3.6 nM | –
Biotin mimicking peptide CHPQGPPC (SEQ ID NO: 9) (Biotin mimicking peptide, ccstreptag) | 230 nM | –
CN(C)[C@@H]1C(O)=C(C(N)=O)C(=O)[C@@]2(O)C(O)=C3C(=O)c4c(O)cccc4[C@@](C)(O)[C@H]3C[C@@H]12 [tetracycline] | – | 100 nM
Biotin mimicking peptide WSHPQFEK (SEQ ID NO: 7) [streptag II] | 72000 nM | –
